{"source": "paper PMC5814829", "assay_in_all_cases": "fluorescence anisotropy", "key": {"[1]": {"molecular_target": "T1, ScPif1p D677T (Saccharomyces cerevisiae, UniProt P07271 237-780, D677T)", "T1 sequence": "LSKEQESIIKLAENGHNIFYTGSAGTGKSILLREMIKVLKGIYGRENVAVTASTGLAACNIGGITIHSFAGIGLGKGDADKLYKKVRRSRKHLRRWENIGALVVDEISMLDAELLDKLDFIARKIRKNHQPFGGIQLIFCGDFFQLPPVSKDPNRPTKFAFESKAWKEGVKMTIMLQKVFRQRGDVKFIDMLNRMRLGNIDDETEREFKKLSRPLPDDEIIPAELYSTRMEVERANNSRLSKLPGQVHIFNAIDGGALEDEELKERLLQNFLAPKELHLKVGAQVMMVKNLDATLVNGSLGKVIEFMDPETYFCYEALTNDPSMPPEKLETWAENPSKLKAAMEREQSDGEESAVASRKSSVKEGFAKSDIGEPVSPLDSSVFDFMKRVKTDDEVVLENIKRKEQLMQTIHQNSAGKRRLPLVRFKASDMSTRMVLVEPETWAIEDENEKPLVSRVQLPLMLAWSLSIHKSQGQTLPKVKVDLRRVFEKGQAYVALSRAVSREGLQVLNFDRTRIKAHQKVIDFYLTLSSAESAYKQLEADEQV"}, "[2]": {"molecular_target": "T2, ScPif1p K595A (Saccharomyces cerevisiae, UniProt P07271 237-780, K595A)", "T2 sequence": "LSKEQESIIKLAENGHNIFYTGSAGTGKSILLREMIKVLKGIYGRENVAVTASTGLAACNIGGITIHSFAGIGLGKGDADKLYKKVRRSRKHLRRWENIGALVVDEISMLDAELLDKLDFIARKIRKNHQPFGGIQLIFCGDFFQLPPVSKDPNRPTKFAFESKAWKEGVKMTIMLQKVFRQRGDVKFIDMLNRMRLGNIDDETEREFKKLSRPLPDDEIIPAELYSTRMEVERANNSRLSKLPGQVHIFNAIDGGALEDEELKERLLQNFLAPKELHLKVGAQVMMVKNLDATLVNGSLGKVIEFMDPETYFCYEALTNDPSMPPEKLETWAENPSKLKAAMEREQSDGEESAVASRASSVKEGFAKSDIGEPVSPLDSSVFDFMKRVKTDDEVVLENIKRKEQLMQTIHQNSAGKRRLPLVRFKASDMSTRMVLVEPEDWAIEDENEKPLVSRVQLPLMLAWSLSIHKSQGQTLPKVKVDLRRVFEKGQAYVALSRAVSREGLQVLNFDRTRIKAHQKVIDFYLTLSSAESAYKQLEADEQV"}, "[3]": {"molecular_target": "T3, ScPif1p (237-780) (Saccharomyces cerevisiae, UniProt P07271 237-780)", "T3 sequence": "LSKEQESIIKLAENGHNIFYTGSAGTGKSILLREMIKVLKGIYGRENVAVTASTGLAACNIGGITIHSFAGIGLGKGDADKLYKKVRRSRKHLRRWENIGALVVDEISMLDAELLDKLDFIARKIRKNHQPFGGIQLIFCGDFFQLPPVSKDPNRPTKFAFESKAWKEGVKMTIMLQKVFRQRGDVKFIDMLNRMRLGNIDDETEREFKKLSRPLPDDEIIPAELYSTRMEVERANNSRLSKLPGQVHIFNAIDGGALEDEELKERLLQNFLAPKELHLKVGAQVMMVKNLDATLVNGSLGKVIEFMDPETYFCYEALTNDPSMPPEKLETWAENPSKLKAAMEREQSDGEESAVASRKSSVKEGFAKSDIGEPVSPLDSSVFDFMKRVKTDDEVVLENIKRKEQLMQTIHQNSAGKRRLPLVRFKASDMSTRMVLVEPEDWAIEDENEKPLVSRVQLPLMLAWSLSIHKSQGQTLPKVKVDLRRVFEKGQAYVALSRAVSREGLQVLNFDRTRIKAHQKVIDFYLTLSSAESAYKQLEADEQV"}, "[4]": {"molecular_target": "T3, ScPif1p (237-780)", "remark": "listed apart in the source"}, "[5]": {"molecular_target": "T3, ScPif1p (237-780)", "remark": "listed apart in the source"}}, "note": "Where two headings read alike, the source gives them in different places."}
{"binder": "GTGTGTGTGGTG (ssDNA)", "note": "[GR12]", "values": [{"measurement": "Kd", "setting": "[1]", "value": "10.5 ± 2.6", "unit": "nM"}, {"measurement": "Kd", "setting": "[2]", "value": "10.2 ± 1.8", "unit": "nM"}, {"measurement": "Kd", "setting": "[3]", "value": 6.1, "unit": "nM"}, {"measurement": "Kd", "setting": "[4]", "value": 7.8, "unit": "nM"}]}
{"binder": "AGGGTGGGTGGGTGGGT (structured_DNA)", "note": "[F-G417]", "values": [{"measurement": "Kd", "setting": "[5]", "value": "25 ± 5.1", "unit": "nM"}]}
